The target of assay [1] is T1, human GPC3 on HepG2 cells (human, UniProt P51654 25-554).
T1 construct: whole, on cells
Kind of assay: FACS, phage-displayed clone on HepG2, well E4; same clone on A-431 (no GPC3): 2.08%. For orientation: In flow cytometry, cells or beads pass a laser one at a time.

Assay [2] deals with T1, human GPC3 on HepG2 cells. The experiment in a line: FACS, periplasmic extract 1:5 + anti-c-myc + GAM-APC on HepG2, well E4; same on A-431: 0.25%.
Assay [3] has as its target T1, human GPC3 on HepG2 cells. The experiment in a line: FACS, periplasmic extract 1:5 + anti-c-myc + GAM-APC on HepG2, well E4; same on A-431: 760.97.
Assay [4] addresses T2, human GPC3 recombinant protein (human, UniProt P51654 25-559).
T2 construct: also called huGPC3; Human GPC3 protein
The experiment in a line: SPR (Biacore), VHH-His over human GPC3 on CM5; fit 62.5 - 7.8 nM; Rmax 22.5 RU; Chi2 0.207. The method, then:
(§1) Affinities of the 19 VHH-His tagged domains were then determined by BiaCore assay. Human GPC3 protein (Sino biological cat. nr. 10088-H08H-500) was immobilized on CM5 sensor chip (GE Healthcare) as antigen. Purified VHH-His tagged domains were diluted in BiaCore buffer (0.01 M HEPES pH 7.4, 0.15 M NaCl, 3 mM EDTA, 0.05% P20) to 500 nM and injected over 2 minutes at […] followed by a half dilution series to 7.8 nM. 10 μl of 10 mM NaOH/1M NaCl were injected between samples and then off-rate wash was 5 minutes.
Background: Surface plasmon resonance follows binding to a sensor surface in real time, without labels.

The target of assay [5] is T2, human GPC3 recombinant protein. The experiment in a line: SPR (Biacore) off-rate screen, periplasmic extract over human GPC3 on CM5; R0 61.6. The method, then:
(§2) Human GPC3 protein in acetate buffer, pH 5.0, was immobilized in a sensor chip CM5 (GE Healthcare; Cat. Nr. BR-1005-30; Lot. Nr.10245232) and successful immobilization was confirmed by using a commercially available human GPC3 antibody (R&D cat. nr. MAB2119) and the anti-GPC3-VHH-Fc (both at 10 μg/mL). Periplasmic extracts from the MP were diluted in Biacore Buffer (0.01 M HEPES pH 7.4, 0.15 M NaCl, 3 mM EDTA, 0.05% P20) and injected over 2 minutes at 30 μL/min. 10 μl of 10 mM NaOH/1M NaCl were injected between samples and off-rates were measured over 5 minutes. Off-rate ([…]) were calculated using BIACORE software 1:1 interaction Langmuir binding model.

Assay [6] deals with T1, human GPC3 on HepG2 cells. The experiment in a line: FACS, phage-displayed clone on HepG2, well E4; same clone on A-431 (no GPC3): 1163.66.
In assay [7] the target is T2, human GPC3 recombinant protein. Kind of assay: SPR (Biacore), summary table; Chi2 0.207; Profile 'Very good'. The method, then: as §1
Assay [8] concerns the target T1, human GPC3 on HepG2 cells. Kind of assay: FACS, phage-displayed clone on HepG2, well B4; same clone on A-431 (no GPC3): 1095.02.
Assay [9] has as its target T1, human GPC3 on HepG2 cells. The experiment in a line: FACS, periplasmic extract 1:5 + anti-c-myc + GAM-APC on HepG2, well B4; same on A-431: 0.54%.
The target in assay [10] is T1, human GPC3 on HepG2 cells. Kind of assay: FACS, periplasmic extract 1:5 + anti-c-myc + GAM-APC on HepG2, well B4; same on A-431: 873.16.
For assay [11], the target named is T1, human GPC3 on HepG2 cells. The experiment in a line: FACS, phage-displayed clone on HepG2, well B4; same clone on A-431 (no GPC3): 1.12%.
Assay [12] has as its target T2, human GPC3 recombinant protein. The experiment in a line: SPR (Biacore) off-rate screen, periplasmic extract over human GPC3 on CM5; R0 38.8. The method, then: as §2
The target is the same in assay [13]. The experiment in a line: SPR (Biacore) off-rate screen, periplasmic extract over human GPC3 on CM5; R0 40.0. How it is done:
as §2

For assay [14] the target is unchanged. The experiment in a line: SPR (Biacore) off-rate screen, periplasmic extract over human GPC3 on CM5; R0 26.5. How it is done: as §2
The target is the same in assay [15]. The experiment in a line: SPR (Biacore), summary table; Chi2 0.465; Profile 'Very good'; FIG. 18 prints 6.01E-09.
Assay [16] has the same target. The experiment in a line: SPR (Biacore), VHH-His over human GPC3 on CM5; fit 197.5 - 17.34 nM; Rmax 10.9 RU; Chi2 0.465. The method, then:
as §1

For assay [17] the target is unchanged. Kind of assay: SPR (Biacore) off-rate screen, periplasmic extract over human GPC3 on CM5; R0 36.0. How it is done: as §2
Assay [18] has the same target. The experiment in a line: SPR (Biacore), VHH-His over human GPC3 on CM5; fit 197.5 - 17.34 nM; Rmax 10.9 RU; Chi2 0.466. The method, then:
as §1

The target is the same in assay [19]. The experiment in a line: SPR (Biacore) off-rate screen, periplasmic extract over human GPC3 on CM5; R0 46.9. How it is done:
as §2

For assay [20] the target is unchanged. Kind of assay: SPR (Biacore), summary table; Chi2 0.466; Profile 'Good'.
For assay [21] the target is unchanged. Kind of assay: SPR (Biacore), VHH-His over human GPC3 on CM5; fit 131.7 - 17.34 nM; Rmax 9.97 RU; Chi2 0.266. The method, then:
as §1

For assay [22], the target named is T1, human GPC3 on HepG2 cells. The experiment in a line: FACS, periplasmic extract 1:5 + anti-c-myc + GAM-APC on HepG2, well F3; same on A-431: 965.7.
In assay [23] the target is T2, human GPC3 recombinant protein. Kind of assay: SPR (Biacore) off-rate screen, periplasmic extract over human GPC3 on CM5; R0 39.2. The method, then:
as §2

Assay [24] shares this target. The experiment in a line: SPR (Biacore), summary table; Chi2 0.266; Profile 'Good'. The method, then: as §1
The target in assay [25] is T1, human GPC3 on HepG2 cells. Kind of assay: FACS, phage-displayed clone on HepG2, well F3; same clone on A-431 (no GPC3): 1.39%.
Assay [26] has as its target T1, human GPC3 on HepG2 cells. The experiment in a line: FACS, phage-displayed clone on HepG2, well F3; same clone on A-431 (no GPC3): 1412.11.
The target of assay [27] is T1, human GPC3 on HepG2 cells. Kind of assay: FACS, periplasmic extract 1:5 + anti-c-myc + GAM-APC on HepG2, well F3; same on A-431: 0.18%.
The target of assay [28] is T2, human GPC3 recombinant protein. Kind of assay: SPR (Biacore) off-rate screen, periplasmic extract over human GPC3 on CM5; R0 48.2. The method, then:
as §2

For assay [29] the target is unchanged. Kind of assay: SPR (Biacore) off-rate screen, periplasmic extract over human GPC3 on CM5; R0 34.4. How it is done:
as §2

For assay [30] the target is unchanged. The experiment in a line: SPR (Biacore) off-rate screen, periplasmic extract over human GPC3 on CM5; R0 29.7. The method, then: as §2
For assay [31], the target named is T1, human GPC3 on HepG2 cells. The experiment in a line: FACS, phage-displayed clone on HepG2. How it is done:
Binding of phage with surface expressed VHH domains to HepG2 cells was assessed using FACS. […] The cell suspension was distributed throughout at 96-well, U-bottom plate (85 μL/well) and incubated with phage (15 μL) on ice for 60 minutes with shaking.

Numbering of substitutions follows the chain as printed.

T1 sequence (P51654 25-554 limits assumed): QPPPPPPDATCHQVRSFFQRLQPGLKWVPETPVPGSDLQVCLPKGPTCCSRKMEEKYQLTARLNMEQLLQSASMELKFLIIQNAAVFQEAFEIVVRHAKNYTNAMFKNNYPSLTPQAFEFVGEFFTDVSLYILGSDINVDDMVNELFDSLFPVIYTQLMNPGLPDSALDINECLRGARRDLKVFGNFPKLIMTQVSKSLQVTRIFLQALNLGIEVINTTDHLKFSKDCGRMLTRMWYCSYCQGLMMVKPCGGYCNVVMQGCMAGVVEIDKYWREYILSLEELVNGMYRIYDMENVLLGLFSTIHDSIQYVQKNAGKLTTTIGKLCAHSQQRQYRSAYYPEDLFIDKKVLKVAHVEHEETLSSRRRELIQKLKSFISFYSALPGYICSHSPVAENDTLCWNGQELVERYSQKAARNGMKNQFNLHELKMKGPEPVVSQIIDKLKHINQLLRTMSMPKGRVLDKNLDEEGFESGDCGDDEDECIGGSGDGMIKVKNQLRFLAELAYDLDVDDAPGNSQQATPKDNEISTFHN
T2 sequence (P51654 25-559 limits assumed): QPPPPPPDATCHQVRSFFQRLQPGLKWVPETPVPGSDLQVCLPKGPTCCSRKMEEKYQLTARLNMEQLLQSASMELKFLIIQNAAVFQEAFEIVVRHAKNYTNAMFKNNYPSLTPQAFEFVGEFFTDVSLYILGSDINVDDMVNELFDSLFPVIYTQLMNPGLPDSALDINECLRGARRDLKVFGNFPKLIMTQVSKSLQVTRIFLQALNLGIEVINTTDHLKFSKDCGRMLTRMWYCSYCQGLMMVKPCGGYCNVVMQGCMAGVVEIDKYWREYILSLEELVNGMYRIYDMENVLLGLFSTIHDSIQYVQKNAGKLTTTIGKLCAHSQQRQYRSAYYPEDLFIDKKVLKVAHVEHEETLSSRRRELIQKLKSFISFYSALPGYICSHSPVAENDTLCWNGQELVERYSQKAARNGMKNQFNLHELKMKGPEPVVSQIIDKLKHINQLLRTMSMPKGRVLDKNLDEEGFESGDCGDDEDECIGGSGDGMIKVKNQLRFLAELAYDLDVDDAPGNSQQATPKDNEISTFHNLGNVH

B1: anti-GPC3 VHH-His tagged domain VHH3 (VHH)
VHH: EVQLVESGGGVVQPGRSLRLSCAASGFTFSNYLMQWVRQAPGKGLVWLSNINSDGSSTDYADSVKGRFTISRDNAKNTLYLQMNSLRAEDTAVYYCRVGAFDYWGQGTLVTVSS
notes: Produced from a mammalian expression vector as a His fusion; not shown: His tag
By Kd is commonly meant the constant that tells how readily two partners part at equilibrium. Usually koff stands for a measure of how fast the partners let go of each other. The kon is a measure of how fast the partners come together. Consider B1, for which the % of Binding in assay [1] was determined as 60.1%; in assay [2], 0.27%. In addition, the Mean FL4-A in assay [3] was found to be 796. Besides, in assay [4], the Ka turned out to be 3.09e+08 M⁻¹. The Kd in assay [4] and in assay [7] was 3.23 nM in each case. In addition, the figures for the off-rate (koff) in assay [4] and in assay [5] were 0.00141 s⁻¹ and 0.00154 s⁻¹, respectively. Also, the kon in assay [4] was determined as 435000 M⁻¹ s⁻¹. This molecule came in with a Mean FL2-A in assay [6] of 18600.

B2: VH29 (VHH)
VHH: QVQLVESGGGLVQPGGSLRLSCAASGFTFSSYAMSWVRQAPGKEPEWVSSISGGGSSTYYADSLKGRFTISRDNSKNTLYLQMNSLRAEDTAVYYCSRDPRFGEPPFDYWGQGTLVTVSS
notes: also called VHH29
Consider B2, for which, in assay [8], the Mean FL2-A stood at 11100. Besides, the % of Binding amounted to 1.43% in assay [9] and 35.7% in assay [11]. The Mean FL4-A in [10] stood at 931. The koff in assay [12] stood at 0.00493 s⁻¹.

B3: VH27 (VHH)
VHH: B2 VHH with Q1E
notes: also called VHH27
Regarding B3, the koff in assay [13] was 0.00387 s⁻¹.

B4: anti-GPC3 VHH-His tagged domain VHH1 (VHH)
VHH: B2 VHH with Q1E, S56T, K65E, R98K, L115T
notes: as for B1
Regarding B4, the koff in assay [14] came out at 0.00247 s⁻¹. Moreover, the Kd in assay [15] was found to be 4.29 nM. Also, in assay [16], the Ka amounted to 1.66e+08 M⁻¹, the Kd was 6.01 nM, the koff was determined as 0.00167 s⁻¹ and the kon came to 278000 M⁻¹ s⁻¹.

B5: VH36 (VHH)
VHH: B2 VHH with L115T
notes: also called VHH36
As to B5, the koff in [17] worked out at 0.00566 s⁻¹.

B6: anti-GPC3 VHH-His tagged domain VHH7 (VHH)
VHH: B2 VHH with Q1E, L115T
notes: as for B1
For the molecule B6, in assay [18], the Ka was determined as 1.46e+08 M⁻¹, the Kd is 6.84 nM, the koff worked out at 0.00262 s⁻¹ and the association rate constant (kon) was determined as 383000 M⁻¹ s⁻¹. Further, the koff in assay [19] is 0.00457 s⁻¹. Further, the Kd in assay [20] was 6.84 nM.

B7: anti-GPC3 VHH-His tagged domain VHH9 (VHH)
VHH: B2 VHH with F107L, L115T
notes: as for B1
As to B7, in assay [21], the Ka turned out to be 1.63e+08 M⁻¹. The dissociation constant Kd in assay [21] and in assay [24] was 6.15 nM throughout. Further, the figures for the koff in [21] and in [23] were 0.00326 s⁻¹ and 0.0062 s⁻¹, respectively. In addition, in assay [21], the kon was determined as 530000 M⁻¹ s⁻¹. For the same molecule, the Mean FL4-A in [22] is 1830. In addition, the % of Binding in [25] was determined as 89%; in assay [27], 0.52%. This molecule also registered a Mean FL2-A in [26] of 130000.

B8: VH21 (VHH)
VHH: B2 VHH with V48I, G54S, R98K
notes: also called VHH21
As to B8, in assay [28], the koff was 0.00269 s⁻¹.

B9: VH26 (VHH)
VHH: B2 VHH with Q1E, V48I, G54S, R98K
notes: also called VHH26
Take B9: the koff in assay [29] came to 0.00379 s⁻¹.

B10: VH32 (VHH)
VHH: QVQLVESGGGLVQPGGSLRLSCAASGFTFSSFAMSWVRQAPGKGLEWVSAISGSGGRTHYADSVKGRFTISRDNSKNTLYLQMNSLRAEDTAVYYCAKEALTGVFDYWGQGTLVTVSS
notes: also called VHH32
Turning to B10, in [30], the koff amounted to 0.0948 s⁻¹. The binding result in assay [31] was “no binding”.

The values above are taken from patent US20260191905A1 (MODERNATX, published 2026).
